B1: STAT5B (unphosphorylated, wild-type), fluorophore fusion [not stated] / STAT5B (unphosphorylated, wild-type), fluorophore fusion [not stated] (parent)
chain 1: MAVWIQAQQLQGEALHQMQALYGQHFPIEVRHYLSQWIESQAWDSVDLDNPQENIKATQLLEGLVQELQKKAEHQVGEDGFLLKIKLGHYATQLQNTYDRCPMELVRCIRHILYNEQRLVREANNGSSPAGSLADAMSQKHLQINQTFEELRLVTQDTENELKKLQQTQEYFIIQYQESLRIQAQFGPLAQLSPQERLSRETALQQKQVSLEAWLQREAQTLQQYRVELAEKHQKTLQLLRKQQTIILDDELIQWKRRQQLAGNGGPPEGSLDVLQSWCEKLAEIIWQNRQQIRRAEHLCQQLPIPGPVEEMLAEVNATITDIISALVTSTFIIEKQPPQVLKTQTKFAATVRLLVGGKLNVHMNPPQVKATIISEQQAKSLLKNENTRNDYSGEILNNCCVMEYHQATGTLSAHFRNMSLKRIKRSDRRGAESVTEEKFTILFESQFSVGGNELVFQVKTLSLPVVVIVHGSQDNNATATVLWDNAFAEPGRVPFAVPDKVLWPQLCEALNMKFKAEVQSNRGLTKENLVFLAQKLFNNSSSHLEDYSGLSVSWSQFNRENLPGRNYTFWQWFDGVMEVLKKHLKPHWNDGAILGFVNKQQAHDLLINKPDGTFLLRFSDSEIGGITIAWKFDSQERMFWNLMPFTTRDFSIRSLADRLGDLNYLIYVFPDRPKDEVYSKYYTPVPCESATAKAVDGYVKPQIKQVVPEFVNASADAGGGSATYMDQAPSPAVCPQAHYNMYPQNPDSVLDTDGDFDLEDTMDVARRVEELLGRPMDSQWIPHAQS
chain 2: B1 chain 1
B2: STAT5A (unphosphorylated, wild-type), fluorophore fusion [not stated] / STAT5A (unphosphorylated, wild-type), fluorophore fusion [not stated] (parent)
chain 1: MAGWIQAQQLQGDALRQMQVLYGQHFPIEVRHYLAQWIESQPWDAIDLDNPQDRAQATQLLEGLVQELQKKAEHQVGEDGFLLKIKLGHYATQLQKTYDRCPLELVRCIRHILYNEQRLVREANNCSSPAGILVDAMSQKHLQINQTFEELRLVTQDTENELKKLQQTQEYFIIQYQESLRIQAQFAQLAQLSPQERLSRETALQQKQVSLEAWLQREAQTLQQYRVELAEKHQKTLQLLRKQQTIILDDELIQWKRRQQLAGNGGPPEGSLDVLQSWCEKLAEIIWQNRQQIRRAEHLCQQLPIPGPVEEMLAEVNATITDIISALVTSTFIIEKQPPQVLKTQTKFAATVRLLVGGKLNVHMNPPQVKATIISEQQAKSLLKNENTRNECSGEILNNCCVMEYHQATGTLSAHFRNMSLKRIKRADRRGAESVTEEKFTVLFESQFSVGSNELVFQVKTLSLPVVVIVHGSQDHNATATVLWDNAFAEPGRVPFAVPDKVLWPQLCEALNMKFKAEVQSNRGLTKENLVFLAQKLFNNSSSHLEDYSGLSVSWSQFNRENLPGWNYTFWQWFDGVMEVLKKHHKPHWNDGAILGFVNKQQAHDLLINKPDGTFLLRFSDSEIGGITIAWKFDSPERNLWNLKPFTTRDFSIRSLADRLGDLSYLIYVFPDRPKDEVFSKYYTPVLAKAVDGYVKPQIKQVVPEFVNASADAGGSSATYMDQAPSPAVCPQAPYNMYPQNPDHVLDQDGEFDLDETMDVARHVEELLRRPMDSLDSRLSPPAGLFTSARGSLS
chain 2: B2 chain 1
B3: STAT4 (unphosphorylated, wild-type), fluorophore fusion [not stated] / STAT4 (unphosphorylated, wild-type), fluorophore fusion [not stated] (parent)
chain 1: MSQWNQVQQLEIKFLEQVDQFYDDNFPMEIRHLLAQWIENQDWEAASNNETMATILLQNLLIQLDEQLGRVSKEKNLLLIHNLKRIRKVLQGKFHGNPMHVAVVISNCLREERRILAAANMPVQGPLEKSLQSSSVSERQRNVEHKVAAIKNSVQMTEQDTKYLEDLQDEFDYRYKTIQTMDQSDKNSAMVNQEVLTLQEMLNSLDFKRKEALSKMTQIIHETDLLMNTMLIEELQDWKRRQQIACIGGPLHNGLDQLQNCFTLLAESLFQLRRQLEKLEEQSTKMTYEGDPIPMQRTHMLERVTFLIYNLFKNSFVVERQPCMPTHPQRPLVLKTLIQFTVKLRLLIKLPELNYQVKVKASIDKNVSTLSNRRFVLCGTNVKAMSIEESSNGSLSVEFRHLQPKEMKSSAGGKGNEGCHMVTEELHSITFETQICLYGLTIDLETSSLPVVMISNVSQLPNAWASIIWYNVSTNDSQNLVFFNNPPPATLSQLLEVMSWQFSSYVGRGLNSDQLHMLAEKLTVQSSYSDGHLTWAKFCKEHLPGKSFTFWTWLEAILDLIKKHILPLWIDGYVMGFVSKEKERLLLKDKMPGTFLLRFSESHLGGITFTWVDHSESGEVRFHSVEPYNKGRLSALPFADILRDYKVIMAENIPENPLKYLYPDIPKDKAFGKHYSSQPCEVSRPTERGDKGYVPSVFIPISTIRSDSTEPHSPSDLLPMSPSVYAVLRENLSPTTIETAMKSPYSAE
chain 2: B3 chain 1
B4: STAT1 (unphosphorylated, wild-type), fluorophore fusion [not stated] / STAT1 (unphosphorylated, wild-type), fluorophore fusion [not stated] (parent)
chain 1: MSQWYELQQLDSKFLEQVHQLYDDSFPMEIRQYLAQWLEKQDWEHAANDVSFATIRFHDLLSQLDDQYSRFSLENNFLLQHNIRKSKRNLQDNFQEDPIQMSMIIYSCLKEERKILENAQRFNQAQSGNIQSTVMLDKQKELDSKVRNVKDKVMCIEHEIKSLEDLQDEYDFKCKTLQNREHETNGVAKSDQKQEQLLLKKMYLMLDNKRKEVVHKIIELLNVTELTQNALINDELVEWKRRQQSACIGGPPNACLDQLQNWFTIVAESLQQVRQQLKKLEELEQKYTYEHDPITKNKQVLWDRTFSLFQQLIQSSFVVERQPCMPTHPQRPLVLKTGVQFTVKLRLLVKLQELNYNLKVKVLFDKDVNERNTVKGFRKFNILGTHTKVMNMEESTNGSLAAEFRHLQLKEQKNAGTRTNEGPLIVTEELHSLSFETQLCQPGLVIDLETTSLPVVVISNVSQLPSGWASILWYNMLVAEPRNLSFFLTPPCARWAQLSEVLSWQFSSVTKRGLNVDQLNMLGEKLLGPNASPDGLIPWTRFCKENINDKNFPFWLWIESILELIKKHLLPLWNDGCIMGFISKERERALLKDQQPGTFLLRFSESSREGAITFTWVERSQNGGEPDFHAVEPYTKKELSAVTFPDIIRNYKVMAAENIPENPLKYLYPNIDKDHAFGKYYSRPKEAPEPMELDGPKGTGYIKTELISVSEVHPSRLQTTDNLLPMSPEEFDEVSRIVGSVEFDSMMNTV
chain 2: B4 chain 1

Variants of B1 are the subject of one assay. Nature of the assay: co-localization assay (quantitative fluorescence microscopy in HeLa cells). The following applies: with STAT5B (unphosphorylated, wild-type), bait S5B-NES, test S5B-L82A, 32 cells (parent 10 cells), parent: 0.97.
chain 1 L82A: the screen value turned out to be 0.63.

The next assay covers variants of B2. The description is as above. The following applies: with STAT5A (unphosphorylated, wild-type), bait S5A-NES, test S5A-L82A, 19 cells (parent 13 cells), parent: 0.97.
As to chain 1 L82A, the screen value worked out at 0.54.

Another assay covers variants of B3. Described as above. The following applies: with STAT4 (unphosphorylated, wild-type), bait S4-NES, test S4-L78S, 19 cells (parent 14 cells), parent: 0.95.
In the case of chain 1 L78S, the screen value is 0.68.

Variants of B4 are the subject of a further assay. Described as above. The following applies: with STAT1 (unphosphorylated, wild-type), bait S1-NLS, test S1-F77A, 20 cells (parent 12 cells), parent: 0.98.
chain 1 F77A: the screen value came out at 0.64.

Values taken from publication PMC10200994.
